# Biological target: T1, Gal4 DNA binding domain alone (UniProt P04386 1-147)
# T1 construct: Negative control bait in the yeast two-hybrid retransformation
# Assay: yeast two-hybrid, retransformation of rescued plasmids
# T1 sequence (P04386 1-147 limits assumed): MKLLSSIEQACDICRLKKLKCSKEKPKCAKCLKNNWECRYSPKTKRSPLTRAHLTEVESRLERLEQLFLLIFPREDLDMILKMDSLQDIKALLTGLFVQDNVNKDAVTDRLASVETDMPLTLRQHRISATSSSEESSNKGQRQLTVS
binder,measurement,value
"peptide aptamer KDI3 (SEQ ID NO:2), displayed in E. coli thioredoxin A (TrxA) (designed binder, not shown: large carriers, Built as the yeast two-hybrid prey; The construct used in the GST pulldown is not described) MSDKIIHLTDDSFDTDVLKADGAILVDFWAEWCGTFSPVVLLYRLFLATVLIWAPCKMIAPILDEIADEYQGKLTVAKLNIDQNPGTAPKYGIRGIPTLLLFKNGEVAATKVGALSKGQLKEFLDANLA",binding result,no binding
"peptide aptamer KDI1 (SEQ ID NO:1), displayed in E. coli thioredoxin A (TrxA) (designed binder, not shown: large carriers, The construct used in the GST pulldown is not described) MSDKIIHLTDDSFDTDVLKADGAILVDFWAEWCGVFGVSWVVGFWCQMHRRLVCPCKMIAPILDEIADEYQGKLTVAKLNIDQNPGTAPKYGIRGIPTLLLFKNGEVAATKVGALSKGQLKEFLDANLA",binding result,no binding
"peptide aptamer KDI4 (SEQ ID NO:3), displayed in E. coli thioredoxin A (TrxA) (designed binder, not shown: large carriers, Built as the yeast two-hybrid prey; The construct used in the GST pulldown is not described) MSDKIIHLTDDSFDTDVLKADGAILVDFWAEWCGLSFQLSPLSLVHRWGTTVDVPCKMIAPILDEIADEYQGKLTVAKLNIDQNPGTAPKYGIRGIPTLLLFKNGEVAATKVGALSKGQLKEFLDANLA",binding result,no binding
